Results as given in publication PMC7810697, “Sarcolipin alters SERCA1a interdomain communication by impairing binding of both calcium and ATP” (Scientific Reports, 2021).

Legend:
[1] = biological target: T1, DDM-solubilized SR (native SERCA1a) (Oryctolagus cuniculus, UniProt P04191); assay: Kinetics of phosphorylation from [γ32P]ATP, DDM-solubilized SR; format: biochemical, rabbit; conditions: calcium-deprived state
T1 construct: DDM-solubilized native SERCA1a purification; from tissue; host or cells: rabbit skeletal muscle sarcoplasmic reticulum
Description: (§1) Transient formation of the phosphoenzyme intermediate was measured after incubation with [γ^32P]ATP followed by acid quenching, and filtration. For most experiments, 50 µL of enzyme at 10 µg/mL in a buffer containing 50 mM Tes-Tris pH7.5, 1 mM KCl, 5 mM MgCl2, 20% glycerol (w/w) and 0.5 mg/mL DDM, supplemented or not with SLN, was stored on ice. Concentrations of EGTA and calcium are specified in figure legends in order to reach the appropriate [Ca^2+]free and therefore the desired starting state for the ATPase. For kinetics of phosphorylation, we initiate reaction by addition of 2 µM [γ^32P]ATP (5 mCi/µmole), and calcium at 100 µM when specified. Reaction was quenched by addition of 2 mL of cold quenching medium (500 mM TCA + 30 mM H3P0_4) under vigorous mixing, and immediately stored on ice for 20–30 min to improve precipitation, a period of time critical for retention of the precipitate on the filter in presence of detergent. This was followed by filtration on GS filters (Millipore, Saint Quentin-Fallavier, France) and careful rinsing of the filters with diluted quenching medium (50 mM TCA + 3 mM H3P0_4). The amount of radioactivity bound to the filter was estimated by liquid scintillation counting (Perkin Elmer TriCarb Counter). […]

[2] = biological target: T1, DDM-solubilized SR (native SERCA1a); assay: Vanadate inhibition of phosphoenzyme formation, DDM-solubilized SR; format: biochemical, rabbit; conditions: Suppl. Fig. 7
Description: as §1

- maximum level of phosphorylated intermediate, DDM-solubilized SR ([1]; Suppl. Fig. 5A): 6.39+/-0.20 nmoles EP/mg ATPase
- t1/2 of phosphorylation, DDM-solubilized SR ([1]; no SLN added (native SLN present), three replicates from two independent experiments, p<0.0001 vs recS1a alone, p=0.002 vs recS1a+Palm-SLN or recS1a+SLN): 10.4 s⁻¹
- EPmax (vanadate series), DDM-solubilized SR [2]: 3.66+/-0.54 nmoles/mg of ATPase
B1: SR: DDM-solubilized native rabbit sarco-endoplasmic reticulum SERCA1a, still containing native SLN (protein)
chain: MEAAHSKSTEECLAYFGVSETTGLTPDQVKRHLEKYGHNELPAEEGKSLWELVIEQFEDLLVRILLLAACISFVLAWFEEGEETITAFVEPFVILLILIANAIVGVWQERNAENAIEALKEYEPEMGKVYRADRKSVQRIKARDIVPGDIVEVAVGDKVPADIRILSIKSTTLRVDQSILTGESVSVIKHTEPVPDPRAVNQDKKNMLFSGTNIAAGKALGIVATTGVSTEIGKIRDQMAATEQDKTPLQQKLDEFGEQLSKVISLICVAVWLINIGHFNDPVHGGSWIRGAIYYFKIAVALAVAAIPEGLPAVITTCLALGTRRMAKKNAIVRSLPSVETLGCTSVICSDKTGTLTTNQMSVCKMFIIDKVDGDFCSLNEFSITGSTYAPEGEVLKNDKPIRSGQFDGLVELATICALCNDSSLDFNETKGVYEKVGEATETALTTLVEKMNVFNTEVRNLSKVERANACNSVIRQLMKKEFTLEFSRDRKSMSVYCSPAKSSRAAVGNKMFVKGAPEGVIDRCNYVRVGTTRVPMTGPVKEKILSVIKEWGTGRDTLRCLALATRDTPPKREEMVLDDSSRFMEYETDLTFVGVVGMLDPPRKEVMGSIQLCRDAGIRVIMITGDNKGTAIAICRRIGIFGENEEVADRAYTGREFDDLPLAEQREACRRACCFARVEPSHKSKIVEYLQSYDEITAMTGDGVNDAPALKKAEIGIAMGSGTAVAKTASEMVLADDNFSTIVAAVEEGRAIYNNMKQFIRYLISSNVGEVVCIFLTAALGLPEALIPVQLLWVNLVTDGLPATALGFNPPDLDIMDRPPRSPKEPLISGWLFFRYMAIGGYVGAATVGAAAWWFMYAEDGPGVTYHQLTHFMQCTEDHPHFEGLDCEIFEAPEPMTMALSVLVTIEMCNALNSLSENQSLMRMPPWVNIWLLGSICLSMSLHFLILYVDPLPMIFKLKALDLTQWLMVLKISLPVIGLDEILKFIARNYLEG
